Measurements reported in PMC10901556, “Conservation of Affinity Rather Than Sequence Underlies a Dynamic Evolution of the Motif-Mediated p53/MDM2 Interaction in Ray-Finned Fishes” (Molecular Biology and Evolution, 2024).
One block for each substance: values may come before it.

Experiments:
[1] = molecular target: MDM2 SWIB domain from Channa argus (Channa argus); test: fluorescence polarisation; displacement: complex of MDM2 (0.2-2 μM) and FITC-p53TAD_(human)^15–26 (15 nM) displaced by increasing unlabeled p53TAD peptide or p53TAD^full-length; KD calculated from IC50 (Nikolovska-Coleska et al. 2004); 20 mM sodium phosphate pH 7.4, 150 mM NaCl, 1 mM TCEP
[2] = molecular target: MDM2 SWIB domain from Maylandia zebra (Maylandia zebra); test: as above
[3] = molecular target: MDM2_(D.rerio) SWIB domain (Danio rerio (zebrafish)); test: ITC; MicroCal iTC200, 25 °C; D. rerio MDM2 11 μM in the cell, p53TAD 118 or 116 μM in the syringe; 20 mM sodium phosphate pH 7.4, 150 mM NaCl, 1 mM TCEP
[4] = molecular target: MDM2_(D.rerio) SWIB domain (Danio rerio (zebrafish)); test: fluorescence polarisation; displacement: complex of MDM2 (0.2-2 μM) and FITC-p53TAD_(human)^15–26 (15 nM) displaced by increasing unlabeled p53TAD peptide or p53TAD^full-length; KD calculated from IC50 (Nikolovska-Coleska et al. 2004); 20 mM sodium phosphate pH 7.4, 150 mM NaCl, 1 mM TCEP
[5] = molecular target: MDM2 SWIB domain from Oncorhynchus kisutch (coho salmon) (Oncorhynchus kisutch (coho salmon)); test: as above
[6] = molecular target: MDM2 SWIB domain from Lepisosteus oculatus (spotted gar) (Lepisosteus oculatus (spotted gar)); test: as above
[7] = molecular target: MDM2 SWIB domain from Clupea harengus (Atlantic herring) (Clupea harengus (Atlantic herring)); test: as above
[8] = molecular target: MDM2 SWIB domain from Anguilla anguilla (European eel) (Anguilla anguilla (European eel)); test: as above
[9] = molecular target: MDM2 SWIB domain from Takifugu rubripes (Japanese puffer) (Takifugu rubripes (Japanese puffer)); test: as above
[10] = molecular target: MDM2_(D.rerio) SWIB domain; test: fluorescence polarization competition assay
[11] = molecular target: MDM2 SWIB (Homo sapiens) (UniProt Q00987); settings: cited from earlier work

Substance: Maylandia zebra p53TADP1 p53TAD^full-length (domain or fragment)
Kd [2]: 190 nM

Substance: alternative p53TAD^17–32_(D.rerio) (P79734) (peptide)
Kd [4]: 580 nM

Substance: Oncorhynchus kisutch (coho salmon) p53TADP1a p53TAD^full-length (domain or fragment)
Kd [5]: 48 nM

Substance: p53TAD_(D.rerio)^full-length (domain or fragment)
Kd [3]: 100 nM
Kd [4]: 49 nM

Substance: Oncorhynchus kisutch p53TADP2 p53TAD^full-length (domain or fragment)
Kd [5]: 70 nM

Substance: p53TAD_(H.sapiens)^15–27 (peptide)
Kd [2]: 1700 nM
Kd [9]: 1100 nM
Kd [1]: 2100 nM
Kd [8]: 900 nM
Kd [7]: 1800 nM
Kd [5]: 780 nM
Kd [6]: 370 nM

Substance: p53TAD^17–32_(D.rerio) I28A
Kd [10]: 460 nM

Substance: Anguilla anguilla (European eel) p53TADP1 p53TAD^full-length (domain or fragment)
Kd [8]: 230 nM

Substance: p53 TAD (from UniProt P04637)
Kd [11]: 100 nM

Substance: Clupea harengus p53TADP2 p53TAD^15–27 (peptide)
Kd [7]: 600 nM

Second part, the substance after the results:

Kd [1]: 100 nM
Substance: Channa argus p53TADP1 p53TAD^full-length (domain or fragment)

Kd [3]: 300 nM
Kd [4]: 180 nM
Substance: p53TAD^17–32_(D.rerio) (peptide)

Kd [6]: 85 nM
Substance: Lepisosteus oculatus (spotted gar) p53TAD^full-length (domain or fragment)

Kd [7]: 40 nM
Substance: Clupea harengus p53TADP2 p53TAD^full-length (domain or fragment)

Kd [8]: 60 nM
Substance: Anguilla anguilla p53TADP2 p53TAD^full-length (domain or fragment)

Kd [5]: 60 nM
Substance: Oncorhynchus kisutch p53TADP1b p53TAD^full-length (domain or fragment)

Kd [7]: 190 nM
Substance: Clupea harengus (Atlantic herring) p53TADP1 p53TAD^full-length (domain or fragment)
